2 proteins from patent US20220364142 can be followed below.

Numbering of substitutions follows the chain as printed. Numbers in names are those of the source.

Series [1] concerns the target T1, DABCYL-TPLKSPPPSPR-EDANS (Calpain Substrate III; Calbiochem).
T1 chain: TPLKSPPPSPR

In series [2] the target is T2, Consensus peptide P4'P (EVKALEEP) (not fully specified).
T2 chain: EVKALEEP

The target of series [3] is T3, Consensus peptide P2R (EVRALEEA) (not fully specified).
T3 chain: EVRALEEA

Series [4] has as its target T4, Consensus peptide P3GP1'V (EGKAVLEA) (not fully specified).
T4 chain: EGKAVLEA

The target in series [5] is T5, Consensus peptide P4'A (EVKALEEA) (not fully specified).
T5 chain: EVKALEEA

The target in series [6] is T6, PR1478 peptide.
T6 chain: WRQNRGGGCINH

Series [7] addresses T7, PR1476 peptide.
T7 chain: RQNRGGGCINH

B1: CAPN5-G267S protease core domain (protein)
chain: MFSCVKPYEDQNYSALRRDCRRRKVLFEDPLFPATDDSLYYKGTPGPAVRWKRPKGICEDPRLFVDGISSHDLHQGQVGNCWFVAACSSLASRESLWQKVIPDWKEQEWDPEKPNAYAGIFHFHFWRFGEWVDVVIDDRLPTVNNQLIYCHSNSRNEFWCALVEKAYAKLAGCYQALDGGNTADALVDFTGGVSEPIDLTEGDFANDETKRNQLFERMLKVHSRGGLISASIKAVTAADMEARLACGLVKGHAYAVTDVRKVRLGHSLLAFFKSEKLDMIRLRNPWGEREWNGPWSDTSEEWQKVSKSEREKMGVTVQDDGEFWMTFEDVCRYFTDIIKCRVI
On to B1, for which, in series [1], the “hydrolysis of FRET substrate (EDANS signal)” value is on record as “DABCYL-TPLKSPPPSPR (SEQ ID NO:3)-EDANS (Calpain Substrate III; Calbiochem; 40 µM) hydrolysis by 50 nM CAPN5-G267S protease core domain”. Further, the “hydrolysis of consensus FRET peptide” value in series [2], in series [3], in series [4] and in series [5] was “These substrates were hydrolyzed by 1.6 µM CAPN5-PC p.G267S in the presence of 10 mM Ca^2+” in each case. In addition, in series [3], the “catalytic efficiency (kcat/Km)” value came to 11 vs. 7 M^-1s^-1. Moreover, the “substrate turnover (kcat)” value in series [3] was “The observed substrate turnover (kcat) of these consensus peptides indicated that peptide P2R is preferred by CAPN5-PC and suggests a preference for arginine in the P2 subsite”.

B2: Calpain-5 protease core domain (CAPN5-PC) (protein)
chain: B1 chain with S267G
As to B2, in series [6], the “proteolytic cleavage of FRET peptide substrate (EDANS fluorescence)” value is “PR1478 also displays activity in a CAPN5 dose-dependent manner” and the “substrate quality compared with PR1476” value is reported as “a tryptophan was added to the N-terminus of PR1476, which makes PR1478 a better substrate for CAPN5”. Also, in series [7], the “catalytic efficiency (kcat/Km)” value came to 11 vs. 7 M^-1s^-1 and the “proteolytic cleavage of FRET peptide substrate (EDANS fluorescence)” value was “PR1476 displays activity in a CAPN5 dose-dependent manner”.
